9 substances from paper PMC9177848 can be followed below.

For one experiment, the target named is smBiT-β-arrestin (an N-terminal smBiT) (UniProt P32121). The experiment is described as follows: NanoBiT β-arrestin recruitment assay. Conditions: highest fenoldopam concentration shown, log[Fenoldopam] M about -4.3; parent: est. 2.7; read off a plot.
Regarding “D1R-LgBit (WT) (from UniProt P21728) K81V”, the response is 1.2 fold change.

Another experiment concerns the target LgBiT-mini-Gs fusion protein. Briefly: NanoBiT mini-Gαs recruitment assay. Conditions: agonist fenoldopam; three independent experiments; parent: est. 7.2; read off a plot.
For “D1R-SmBiT fusion protein (WT) (from UniProt P21728) N292L”, the other: pEC50 came out at 5.4.
On the same count and under the same terms, as for “D1R-SmBiT fusion protein (WT) (from UniProt P21728) F288A”, the figure is 6; as for “D1R-SmBiT fusion protein (WT) (from UniProt P21728) K81V”, 6; as for “D1R-SmBiT fusion protein (WT) (from UniProt P21728) W321F”, 6.5.
The same measure, in the same setting: with “D1R-SmBiT fusion protein (WT) (from UniProt P21728) S198G” the figure was 5.1; with “D1R-SmBiT fusion protein (WT) (from UniProt P21728) L190A”, 5.
For “D1R-SmBiT fusion protein (WT) (from UniProt P21728) F289A”, the other: pEC50 is 6.1.
On the same count and under the same terms, as for “D1R-SmBiT fusion protein (WT) (from UniProt P21728) S202A”, the figure is 6.6.
